The assay concerns the target PD-L1 on CHO-PD-L1 cells (Promega blockade system) (UniProt Q9NZQ7).

PD-L1 on CHO-PD-L1 cells (Promega blockade system), sequence (Q9NZQ7 19-290 limits assumed): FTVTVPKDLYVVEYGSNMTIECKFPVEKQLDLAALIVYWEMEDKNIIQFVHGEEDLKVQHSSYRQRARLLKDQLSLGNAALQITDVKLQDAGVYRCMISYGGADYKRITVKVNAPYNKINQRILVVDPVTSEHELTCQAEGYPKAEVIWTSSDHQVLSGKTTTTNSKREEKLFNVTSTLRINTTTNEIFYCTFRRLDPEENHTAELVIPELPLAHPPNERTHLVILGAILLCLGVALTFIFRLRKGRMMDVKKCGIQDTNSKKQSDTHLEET

Turning to Tecentriq (antibody), the EC50 (read off the curve); luciferase fold induction, Promega CHO-PD-L1 / PD-1 Jurkat assay was 0.1 nM.

The record behind these values is US20250129167A1.
